# Target: PI-3-kinase (human (endogenous in Caco2)) (UniProt P42338)
# Experiment: co-IP; as the basal co-IP, but Caco2 Dsg2^WT cells incubated for 24h with TNFα (100 ng/ml) before lysis; Dsg2/PI-3-kinase ratio of optical densities, fold of controls, n=4
# Sequence of UniProt P42338 (P42338 whole entry): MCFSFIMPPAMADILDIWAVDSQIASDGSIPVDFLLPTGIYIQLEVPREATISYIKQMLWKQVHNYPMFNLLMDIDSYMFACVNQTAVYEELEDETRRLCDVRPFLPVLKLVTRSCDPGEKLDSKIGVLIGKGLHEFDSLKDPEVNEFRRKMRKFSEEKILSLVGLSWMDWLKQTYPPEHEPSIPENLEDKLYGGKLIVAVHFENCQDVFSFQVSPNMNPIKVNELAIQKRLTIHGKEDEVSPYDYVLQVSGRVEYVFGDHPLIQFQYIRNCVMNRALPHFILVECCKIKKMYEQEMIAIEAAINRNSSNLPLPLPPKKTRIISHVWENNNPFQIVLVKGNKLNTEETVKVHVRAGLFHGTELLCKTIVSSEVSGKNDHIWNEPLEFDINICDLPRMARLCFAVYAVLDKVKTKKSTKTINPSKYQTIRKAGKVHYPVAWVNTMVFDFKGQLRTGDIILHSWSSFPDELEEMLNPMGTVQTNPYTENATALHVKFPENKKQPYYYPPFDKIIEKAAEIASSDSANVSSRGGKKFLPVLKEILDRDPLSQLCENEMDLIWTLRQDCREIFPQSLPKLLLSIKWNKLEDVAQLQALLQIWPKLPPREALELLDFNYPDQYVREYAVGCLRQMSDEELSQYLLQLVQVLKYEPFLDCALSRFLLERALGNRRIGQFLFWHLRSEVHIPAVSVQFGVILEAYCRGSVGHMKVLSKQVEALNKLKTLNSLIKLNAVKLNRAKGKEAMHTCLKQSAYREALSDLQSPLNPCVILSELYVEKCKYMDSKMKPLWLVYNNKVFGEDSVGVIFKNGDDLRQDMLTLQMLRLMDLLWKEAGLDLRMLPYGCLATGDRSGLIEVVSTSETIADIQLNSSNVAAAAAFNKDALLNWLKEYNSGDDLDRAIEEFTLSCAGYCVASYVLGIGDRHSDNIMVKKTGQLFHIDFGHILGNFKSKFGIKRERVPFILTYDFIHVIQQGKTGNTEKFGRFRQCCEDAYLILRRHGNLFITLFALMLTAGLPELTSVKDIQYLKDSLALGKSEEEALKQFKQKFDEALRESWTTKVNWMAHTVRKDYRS
substance,measurement,value
Desmoglein 2 (from UniProt Q14126 50-1118) (natural protein),"fold of controls (Dsg2/PI-3-kinase ratio in the co-IP, after TNFα) (fold of controls)",0.34
